Reference: US20110212097A1

What was measured:
BSA control in GdnHCl [1] = biological target: BSA control in GdnHCl (UniProt P02769); experiment: ELISA mean
BSA control in PBS [2] = biological target: BSA control in PBS (UniProt P02769); experiment: ELISA mean
[3] = biological target: denatured or misfolded SOD1 (SOD1 in denaturation buffer with 6M GdnHCl) (Homo sapiens (Human)) (UniProt P00441); experiment: ELISA mean
[4] = biological target: natively folded SOD1 (SOD1 in PBS) (Homo sapiens (Human)) (UniProt P00441); experiment: ELISA mean
BSA control in GdnHCl [5] = biological target: BSA control in GdnHCl (UniProt P02769); experiment: ELISA rep1
BSA control in PBS [6] = biological target: BSA control in PBS (UniProt P02769); experiment: ELISA rep1
[7] = biological target: denatured or misfolded SOD1 (SOD1 in denaturation buffer with 6M GdnHCl) (Homo sapiens (Human)) (UniProt P00441); experiment: ELISA rep1
[8] = biological target: natively folded SOD1 (SOD1 in PBS) (Homo sapiens (Human)) (UniProt P00441); experiment: ELISA rep1
BSA control in GdnHCl [9] = biological target: BSA control in GdnHCl (UniProt P02769); experiment: ELISA rep2
BSA control in PBS [10] = biological target: BSA control in PBS (UniProt P02769); experiment: ELISA rep2
[11] = biological target: denatured or misfolded SOD1 (SOD1 in denaturation buffer with 6M GdnHCl) (Homo sapiens (Human)) (UniProt P00441); experiment: ELISA rep2
[12] = biological target: natively folded SOD1 (SOD1 in PBS) (Homo sapiens (Human)) (UniProt P00441); experiment: ELISA rep2
BSA control in PBS [13] = biological target: BSA control in PBS (UniProt P02769); experiment: ELISA mean; BSA-PBS
[14] = biological target: denatured or misfolded SOD1 (SOD1 in denaturation buffer with 6M GdnHCl) (Homo sapiens (Human)) (UniProt P00441); experiment: ELISA mean; SOD-Gnd
[15] = biological target: natively folded SOD1 (SOD1 in PBS) (Homo sapiens (Human)) (UniProt P00441); experiment: ELISA mean; SOD-PBS
BSA control in PBS [16] = biological target: BSA control in PBS (UniProt P02769); experiment: ELISA rep1; BSA-PBS
[17] = biological target: denatured or misfolded SOD1 (SOD1 in denaturation buffer with 6M GdnHCl) (Homo sapiens (Human)) (UniProt P00441); experiment: ELISA rep1; SOD-Gnd
[18] = biological target: natively folded SOD1 (SOD1 in PBS) (Homo sapiens (Human)) (UniProt P00441); experiment: ELISA rep1; SOD-PBS
BSA control in PBS [19] = biological target: BSA control in PBS (UniProt P02769); experiment: ELISA rep2; BSA-PBS
[20] = biological target: denatured or misfolded SOD1 (SOD1 in denaturation buffer with 6M GdnHCl) (Homo sapiens (Human)) (UniProt P00441); experiment: ELISA rep2; SOD-Gnd
[21] = biological target: natively folded SOD1 (SOD1 in PBS) (Homo sapiens (Human)) (UniProt P00441); experiment: ELISA rep2; SOD-PBS
[22] = biological target: DSE-2-BSA antigen (human); experiment: indirect ELISA Exp #1
[23] = biological target: DSE-2-BSA antigen (human); experiment: indirect ELISA Exp #2
[24] = biological target: denatured or misfolded SOD1 (SOD1 in denaturation buffer with 6M GdnHCl) (Homo sapiens (Human)) (UniProt P00441); experiment: ELISA, SOD1 minus BSA
[25] = biological target: natively folded SOD1 (SOD1 in PBS) (Homo sapiens (Human)) (UniProt P00441); experiment: ELISA, SOD1 minus BSA
[26] = biological target: SOD1 oxidized with a mixture of ascorbate and copperchloride (Homo sapiens (Human)) (UniProt P00441); experiment: ELISA mean; 0 hr CuCl
[27] = biological target: SOD1 oxidized with a mixture of ascorbate and copperchloride (Homo sapiens (Human)) (UniProt P00441); experiment: ELISA mean; 1 hr CuCl
[28] = biological target: SOD1 oxidized with H2O2 (Homo sapiens (Human)) (UniProt P00441); experiment: ELISA mean; 1 mM H2O2
[29] = biological target: SOD1 oxidized with a mixture of ascorbate and copperchloride (Homo sapiens (Human)) (UniProt P00441); experiment: ELISA mean; 3 hr CuCl
[30] = biological target: SOD1 oxidized with a mixture of ascorbate and copperchloride (Homo sapiens (Human)) (UniProt P00441); experiment: ELISA mean; 6 hr CuCl
[31] = biological target: SOD1 oxidized with a mixture of ascorbate and copperchloride (Homo sapiens (Human)) (UniProt P00441); experiment: ELISA rep1; 0 hr CuCl
[32] = biological target: SOD1 oxidized with a mixture of ascorbate and copperchloride (Homo sapiens (Human)) (UniProt P00441); experiment: ELISA rep1; 1 hr CuCl
[33] = biological target: SOD1 oxidized with H2O2 (Homo sapiens (Human)) (UniProt P00441); experiment: ELISA rep1; 1 mM H2O2
[34] = biological target: SOD1 oxidized with a mixture of ascorbate and copperchloride (Homo sapiens (Human)) (UniProt P00441); experiment: ELISA rep1; 3 hr CuCl
[35] = biological target: SOD1 oxidized with a mixture of ascorbate and copperchloride (Homo sapiens (Human)) (UniProt P00441); experiment: ELISA rep1; 6 hr CuCl
[36] = biological target: SOD1 oxidized with a mixture of ascorbate and copperchloride (Homo sapiens (Human)) (UniProt P00441); experiment: ELISA rep2; 0 hr CuCl
[37] = biological target: SOD1 oxidized with a mixture of ascorbate and copperchloride (Homo sapiens (Human)) (UniProt P00441); experiment: ELISA rep2; 1 hr CuCl
[38] = biological target: SOD1 oxidized with H2O2 (Homo sapiens (Human)) (UniProt P00441); experiment: ELISA rep2; 1 mM H2O2
[39] = biological target: SOD1 oxidized with a mixture of ascorbate and copperchloride (Homo sapiens (Human)) (UniProt P00441); experiment: ELISA rep2; 3 hr CuCl
[40] = biological target: SOD1 oxidized with a mixture of ascorbate and copperchloride (Homo sapiens (Human)) (UniProt P00441); experiment: ELISA rep2; 6 hr CuCl
[41] = biological target: SOD1 oxidized with H2O2 (Homo sapiens (Human)) (UniProt P00441); experiment: ELISA mean; 10 mM H2O2
[42] = biological target: SOD1 oxidized with H2O2 (Homo sapiens (Human)) (UniProt P00441); experiment: ELISA rep1; 10 mM H2O2
[43] = biological target: SOD1 oxidized with H2O2 (Homo sapiens (Human)) (UniProt P00441); experiment: ELISA rep2; 10 mM H2O2
[44] = biological target: SOD1 oxidized with H2O2 (Homo sapiens (Human)) (UniProt P00441); experiment: ELISA mean; 100 uM H2O2
[45] = biological target: SOD1 oxidized with H2O2 (Homo sapiens (Human)) (UniProt P00441); experiment: ELISA rep1; 100 uM H2O2
[46] = biological target: SOD1 oxidized with H2O2 (Homo sapiens (Human)) (UniProt P00441); experiment: ELISA rep2; 100 uM H2O2
[47] = biological target: human transferrin (human) (UniProt P02787); experiment: indirect ELISA, control antigen
[48] = biological target: denatured or misfolded SOD1 (SOD1 in denaturation buffer with 6M GdnHCl) (Homo sapiens (Human)) (UniProt P00441); experiment: ELISA, unfolded vs natively folded SOD1
BSA control in PBS [49] = biological target: BSA control in PBS (UniProt P02769); experiment: ELISA rep3; BSA-PBS
[50] = biological target: denatured or misfolded SOD1 (SOD1 in denaturation buffer with 6M GdnHCl) (Homo sapiens (Human)) (UniProt P00441); experiment: ELISA rep3; SOD-Gnd
[51] = biological target: natively folded SOD1 (SOD1 in PBS) (Homo sapiens (Human)) (UniProt P00441); experiment: ELISA rep3; SOD-PBS
[52] = biological target: SOD1 oxidized with a mixture of ascorbate and copperchloride (Homo sapiens (Human)) (UniProt P00441); experiment: ELISA rep3; 0 hr CuCl
[53] = biological target: SOD1 oxidized with a mixture of ascorbate and copperchloride (Homo sapiens (Human)) (UniProt P00441); experiment: ELISA rep3; 1 hr CuCl
[54] = biological target: SOD1 oxidized with H2O2 (Homo sapiens (Human)) (UniProt P00441); experiment: ELISA rep3; 1 mM H2O2
[55] = biological target: SOD1 oxidized with a mixture of ascorbate and copperchloride (Homo sapiens (Human)) (UniProt P00441); experiment: ELISA rep3; 3 hr CuCl
[56] = biological target: SOD1 oxidized with a mixture of ascorbate and copperchloride (Homo sapiens (Human)) (UniProt P00441); experiment: ELISA rep3; 6 hr CuCl
[57] = biological target: SOD1 oxidized with H2O2 (Homo sapiens (Human)) (UniProt P00441); experiment: ELISA rep3; 10 mM H2O2
[58] = biological target: SOD1 oxidized with H2O2 (Homo sapiens (Human)) (UniProt P00441); experiment: ELISA rep3; 100 uM H2O2

Sequence of UniProt P02787 (P02787 20-698 limits assumed): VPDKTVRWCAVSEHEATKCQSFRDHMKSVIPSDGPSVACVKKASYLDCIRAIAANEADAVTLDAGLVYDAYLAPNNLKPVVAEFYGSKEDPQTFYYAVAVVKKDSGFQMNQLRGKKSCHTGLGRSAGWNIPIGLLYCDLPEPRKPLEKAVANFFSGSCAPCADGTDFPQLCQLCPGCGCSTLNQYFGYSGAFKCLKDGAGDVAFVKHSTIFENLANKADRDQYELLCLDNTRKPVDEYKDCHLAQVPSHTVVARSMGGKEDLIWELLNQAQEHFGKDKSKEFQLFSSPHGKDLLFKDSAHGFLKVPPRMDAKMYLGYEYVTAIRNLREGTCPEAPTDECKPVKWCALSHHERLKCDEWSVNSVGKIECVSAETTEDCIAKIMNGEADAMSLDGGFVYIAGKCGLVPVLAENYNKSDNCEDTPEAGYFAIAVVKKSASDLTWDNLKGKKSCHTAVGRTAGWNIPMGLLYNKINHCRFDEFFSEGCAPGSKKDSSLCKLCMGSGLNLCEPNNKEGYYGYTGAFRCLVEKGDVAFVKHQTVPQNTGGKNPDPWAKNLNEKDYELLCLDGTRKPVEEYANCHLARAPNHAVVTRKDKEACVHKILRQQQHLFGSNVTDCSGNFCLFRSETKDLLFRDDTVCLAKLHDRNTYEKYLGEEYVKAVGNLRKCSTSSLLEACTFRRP

Work on “anti-DSE2 hybridoma clone 3H1 (antibody)” yielded an OD450 (BSA control in GdnHCl [1]) of 0.164 OD450, an OD450 (BSA control in PBS [2]) of 0.156 OD450 and an OD450 [3] of 2.15 OD450. The OD450 [4] was 0.41 OD450, the OD450 (BSA control in GdnHCl [5]) was 0.165 OD450 and the OD450 (BSA control in PBS [6]) was 0.161 OD450. The OD450 [7] was 2.19 OD450, the OD450 [8] was 0.257 OD450 and the OD450 (BSA control in GdnHCl [9]) was 0.162 OD450. It also gave an OD450 (BSA control in PBS [10]) of 0.15 OD450, an OD450 [11] of 2.1 OD450 and an OD450 [12] of 0.563 OD450. It also gave an absorbance (BSA control in PBS [13]) of 0.077, an absorbance [14] of 2.29 and an absorbance [15] of 0.338. It also gave an absorbance (BSA control in PBS [16]) of 0.078, an absorbance [17] of 2.29 and an absorbance [18] of 0.34. For the same substance, the absorbance (BSA control in PBS [19]) was 0.076, the absorbance [20] was 2.29 and the absorbance [21] was 0.335. For the same substance, the OD450 [22] was 1.98 OD450, the OD450 [23] was 1.91 OD450 and the S-N (U) [24] was 1.99 OD450. The S-N (F) [25] was 0.251 OD450, the absorbance [26] was 0.558 and the absorbance [27] was 1.51. The absorbance [28] was 0.731, the absorbance [29] was 1.67 and the absorbance [30] was 1.43. The absorbance [31] was 0.527, the absorbance [32] was 1.59 and the absorbance [33] was 0.744. It also gave an absorbance [34] of 1.72, an absorbance [35] of 1.38 and an absorbance [36] of 0.59. It also gave an absorbance [37] of 1.44, an absorbance [38] of 0.717 and an absorbance [39] of 1.62. For the same substance, the absorbance [40] was 1.49, the absorbance [41] was 0.745 and the absorbance [42] was 0.763. The absorbance [43] was 0.726, the absorbance [44] was 0.43 and the absorbance [45] was 0.436. The absorbance [46] was 0.425, the OD450 [47] was 0.081 OD450 and the U/F [48] was 7.93 fold.

Work on “anti-DSE2 IgG mAb clone 10E11C11 (antibody)” yielded an absorbance (BSA control in PBS [13]) of 0.103, an absorbance [14] of 1.24 and an absorbance [15] of 0.369. The absorbance (BSA control in PBS [16]) was 0.12, the absorbance [17] was 1.24 and the absorbance [18] was 0.357. It also gave an absorbance (BSA control in PBS [19]) of 0.098, an absorbance [20] of 1.25 and an absorbance [21] of 0.362. The absorbance (BSA control in PBS [49]) was 0.091, the absorbance [50] was 1.23 and the absorbance [51] was 0.389. It also gave an absorbance [26] of 0.668, an absorbance [27] of 1.03 and an absorbance [28] of 0.77. For the same substance, the absorbance [29] was 1.07, the absorbance [30] was 1.02 and the absorbance [31] was 0.67. The absorbance [32] was 1.02, the absorbance [33] was 0.776 and the absorbance [34] was 1.06. It also gave an absorbance [35] of 1.04, an absorbance [36] of 0.669 and an absorbance [37] of 1.03. The absorbance [38] was 0.752, the absorbance [39] was 1.06 and the absorbance [40] was 0.987. It also gave an absorbance [52] of 0.664, an absorbance [53] of 1.03 and an absorbance [54] of 0.781. The absorbance [55] was 1.08, the absorbance [56] was 1.04 and the absorbance [41] was 0.851. It also gave an absorbance [42] of 0.836, an absorbance [43] of 0.84 and an absorbance [57] of 0.878. The absorbance [44] was 0.473, the absorbance [45] was 0.489 and the absorbance [46] was 0.476. For the same substance, the absorbance [58] was 0.453.
